For the data set, the target named is T1, PRDM14 DNA binding domain (C-terminal 179 aa) (Homo sapiens, UniProt Q9GZV8 SEQ:393-571).
T1 sequence: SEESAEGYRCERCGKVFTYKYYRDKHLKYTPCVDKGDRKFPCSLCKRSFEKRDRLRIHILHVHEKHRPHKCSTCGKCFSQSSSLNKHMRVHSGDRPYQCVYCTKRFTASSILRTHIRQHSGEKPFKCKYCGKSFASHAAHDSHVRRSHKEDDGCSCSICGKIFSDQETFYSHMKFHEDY
The data set can be described thus: EMSA; 100 ng protein, 1 ng probe, poly(dI-dC), 10 mM ZnCl2, 60 mM KCl, pH 7.9, room temperature. Particulars: tags: His tag, pET42b, E. coli BL21; label: 5' biotin on sense strand. The procedure:
Recombinant PRDM14 DNA binding domain (His tagged) was used in the gel shift assays. Briefly, a cDNA encoding 179 amino acids of the C terminus of PRDM14 was cloned into the pET42b (Novagen) vector using cloning sites NdeI and XhoI. The fusion construct was transformed into BL21 competent cells (Strategene) according to the supplier's instructions. Purified proteins were dialyzed against a dialysis buffer (10 mM Tris-HCl, pH 7.4, 100 mM NaCl, 10 mM ZnCl₂ and 10% glycerol) at 4° C. for 6 hr. Oligonucleotides (Proligo) labeled with biotin at the 5′ end of the sense strands were annealed with the antisense strands in the annealing buffer (10 mM Tris-HCl, pH8.0, 50 mM NaCl, 1 mM EDTA) and purified with agarose gel DNA extraction kit (Qiagen). DNA concentrations were determined by the NanoDrop ND-1000 spectrophotometer. The gel shift assays were performed using a LightShift Chemiluminescent EMSA kit (Pierce Biotechnologies). 100 ng of protein was added to a 5 μl reaction mixture (final) containing 1 μg of poly(dI-dC) (Amersham), 1 ng of biotin-labeled oligonucleotide in the binding buffer (12 mM HEPES, pH7.9, 10% glycerol, 60 mM KCl, 0.25 mM EDTA, 1 mM DTT, 10 mM ZnCl₂). Binding reaction mixtures were incubated for 20 min at room temperature. […] Gels were transferred to Biodyne B nylon membranes (Pierce Biotechnologies) using western blot techniques and detected using chemiluminescence.
Background: In EMSA bound probe runs differently from free probe, usually more slowly.

B1: CR2 probe (dsDNA)
DNA 1: CAGCTCTAACCCTAAACAAGTGCTCAACCCTTGAATGGGCCTGGATGGCT
DNA 2: AGCCATCCAGGCCCATTCAAGGGTTGAGCACTTGTTTAGGGTTAGAGCTG
Regarding B1, the binding result is on record as “binds”.

The values above are taken from patent US20130078720, “METHOD FOR INDUCING PLURIPOTENCY IN HUMAN SOMATIC CELLS WITH PRDM14 OR NFRKB” (Agency for Science, Technology and Research, published 2013).
